Results taken from US20240425587A1 (Alector, published 2024).

B1: D5 (antibody, V domains shown)
VH: EVKLDETGGGLVQPGRPMKLSCVASGFTFSDYWMNWVRQSPEKGLEWVAQIRNKLYNYETYYSDSVKGRFTISRDDSKSSVYLQMNNLRAEDMGIYYCTVGLAMDYWGQGTSVTVSS
VL: DIQMTQSSSSFSVSLGDRVTITCKASEDIYNRLAWYQQKPGNAPRLLISGATSLETGVPSRFSGSGSGKEYTLNITSLQTEDVATYYCQQYWSTPTFGGGTKLEIK
notes: second hybridoma campaign
B2: D2 (antibody, V domains shown)
VH: QIQLGQSGPELKRPRETVKISCKASGYTFTTYGMSWVKQAPGKGLRWMGWINTHSGVPAYADDFKGRFAFSLETSANTAFLQINNLENEDTATYFCAKDYNWGMDYWGQGTSVIVSS
VL: QLVLTQSSSASFSLGASAKLTCTLSSQHSTYTIEWYQQQPLKPPKYVMEVKKDGSHSTGDGIPDRFSGSSSGADRYLSISNIQPEDEAIYICGVGDSIKEQFVYVFGGGTKVTVL
notes: second hybridoma campaign
B3: E12 (antibody, V domains shown)
VH: QVQLQQSGAELAKPGASVKLSCKASGYTFTSYWIHWVKQRPGQGLEWIGYINPSSGDTEYNQKFKDKATLTADKSSNTAYMQLSSLTYEDSAVYYCARSAPDDGYYDYAMDYWGQGTSVTVSS
VL: DIVMTQSRKFMSTSVGDRVSVTCKASQNVGSNVAWYQQKPGQSPKGLTYSASYRYSGVPDRFTGSGSGTDFTLTISNVQSEDLAEYFCQQYNSYPYTFGGGTKLEIK
notes: B-cell cloning campaign (mice)
B4: C8 (antibody, V domains shown)
VH: EVQLQQSGADLVKSGASVKLSCTASGFNIKDYYIHWVKQRTAQGLEWIGRITPEDGETEYAPTFQVKATITADTSSNTAYLQLNSLTSEDTAVYYCSLGDYDVSPFAYWGQGTLVTVSA
VL: DIQMTQSPASQSASLGESVTITCLASQTIGTWLAWYQQKPGKSPQLLIYAATSLADGVPSRFSGSGSGTKFSFKISSLQAEDFVSYYCQQLYSTPYTFGGGTKLEIK
notes: first hybridoma campaign
B5: B1 (antibody, V domains shown)
VH: DVKLVESGGGLVKLGGSLKLSCAASGFTFSSYYMSWVRQTPEKRLEWVAAINSNGDRSYYPDTVKGRFTISRDNAKNTLYLQMSSLKSEDTAFYYCASHGNYYGSPWFAYWGQGTLVTVSA
VL: ETTVTQSPASLSVATGEKVTIRCKTSTDIDDDMNWYQQKPGEPPKLLISEGNTLRPGVPSRFSSSGYGTDFVFTIENTLSEDVADYYCLQNDHMPLTFGGGTKLEIK
notes: as for B3
B6: E20 (antibody, V domains shown)
VH: QIQLVQSGPELKKPGETVKISCKASGYTFTTYGMSWVKQAPGKGLKWMGWINTYSGVPTYADDFKGRFAFSLETSASTAYLQINNLKNEDTATYFCARYDGYLDYWGQGTTLTVSS
VL: DIVLTQSPASLAVSLGQRATISCKASQSVDYDGDSYMNWYQQKPGQPPKLLIYAASNLESGIPARFSGSGSGTDFTLNIHPVEEEDAATYYCQQSNEDLTFGSGTKLEIK
notes: as for B3
B7: D6 (antibody, V domains shown)
VH: EVQLQQSGPELVKPGASVKMSCKASGYTFTDYYMDWVKQSHGESFEWIGRVNPYTGDSSYNQKFKGKATLTVDKSSNTAYLEFNSLTSEGSAVYYCARSDGYHYKYAMDYWGQGTSVTVSS
VL: DVVMTQTPLSLPVSLGDQASISCRSSQSLVHSTGNTYLHWYLQKPGQSPNLLIYKISNRFSGVPDRFSGSGSGTDFTLKISRVEAEDLGVYFCSQSTHVPYTFGGGTKLEIK
notes: second hybridoma campaign; same VH/VL as D8
B8: D8 (antibody, V domains shown)
VH: B7 VH
VL: B7 VL
notes: second hybridoma campaign; same VH/VL as D6
B9: D3 (antibody, V domains shown)
VH: QVQLQQPGADLVKPGASVKVSCKTSGYSFTSYWIHWVKQRPGQGLEWIGRVHPSDSDTDYSQKFKGKATLTVDDSSSTVYMQLTNLTSEDSAVYYCAIEWGYLFDYWGQGTTLSVSS
VL: DIVLTQSPISLAVSLGQRATISCWASQSVSTSSYSYVHWYQQKPGQPPKLLIKYASNLDSGVPARFSGSGSGTDFTLNIHPVDEEDTATYYCHHNWEIPYTFGGGTKLEIK
notes: second hybridoma campaign
B10: D4 (antibody, V domains shown)
VH: QVQLQQSGADLARPGASVKLSCKASGYTFTSYGIAWMKQRTGQGLEWIGEIYPRSGNPYYNDRFKGKATLTADRSSNTTYMELRSLTSEDSAVYFCARWVGGIIDYWGQGTSVTVSS
VL: DIVMTQSQKFMSTSIGDRVSVTCKASQNVGFNVAWYQQKPGQSPKPLIYSASYRYSGVPDRFTGSESGTEFTLIISNVQSEDLAEYFCQQYDSYPFTFGSGTNLEIK
notes: second hybridoma campaign

These binders were tested against T1, human PILRA, c-term His-Avi tag (human, UniProt Q9UKJ1 20-197, limits assumed) (assay: SPR (Biacore), antibody captured, PILRA as analyte).
T1 construct: not shown: C-terminal His-Avi tag
T1 sequence (Q9UKJ1 20-197 limits assumed): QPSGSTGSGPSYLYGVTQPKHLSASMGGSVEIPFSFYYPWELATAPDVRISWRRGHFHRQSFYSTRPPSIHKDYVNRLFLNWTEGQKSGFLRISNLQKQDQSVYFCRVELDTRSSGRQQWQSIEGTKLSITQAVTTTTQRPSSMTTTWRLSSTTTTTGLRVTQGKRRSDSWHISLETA
Summary of the method: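 Antibodies were captured at 10 μg/ml on an anti-huFc or anti-msFc CM5 surface, and human PILRA was flowed at 33, 100 and 300 nM in HBSTE/0.5% BSA, pH 7.4. The surface was regenerated with 10 mM glycine-HCl, pH 2.1, after each analyte. Curves were double-referenced with buffer injections.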

Row | Kd | koff | kon | t½ | Binder
1 | 36.8 nM | 0.0014 s⁻¹ | 37000 M⁻¹ s⁻¹ | 8.5 min | B1
2 | < 1.3 nM | < 0.0001 s⁻¹ | 75000 M⁻¹ s⁻¹ |  | B2
3 | 65.6 nM | 0.0012 s⁻¹ | 18000 M⁻¹ s⁻¹ | 9.6 min | B3

What follows are binders tested against T2, human PILRB, ectopically expressed on 293 cells (human, UniProt Q9UKJ0 20-227) (assay: flow cytometry, MFI relative to 293 parental cells).
T2 construct: also called hB
T2 sequence (Q9UKJ0 20-227): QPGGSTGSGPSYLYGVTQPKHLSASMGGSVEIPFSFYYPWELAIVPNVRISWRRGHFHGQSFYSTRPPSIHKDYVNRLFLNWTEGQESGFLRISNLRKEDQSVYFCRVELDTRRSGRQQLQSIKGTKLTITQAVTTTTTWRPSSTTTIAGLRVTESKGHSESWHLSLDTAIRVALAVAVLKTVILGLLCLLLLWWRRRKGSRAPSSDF
Procedure: (§1) Briefly, conditioned media containing antibodies were incubated with 293 cells for 30 min at 4° C., washed twice, and then detected with anti-mouse IgG Alexa 647.

Row | MFIr | Binder
4 | 1.2 | B4

Each binder was assayed against T3, human PILRA, G78 variant, ectopically expressed on 293 cells (human, UniProt Q9UKJ1 20-303) (assay: flow cytometry, MFI relative to 293 parental cells).
T3 construct: the cells are labelled G78; also called hA G78 OE; hA
T3 sequence (Q9UKJ1 other isoform, or with tags, fused parts or gaps mutant): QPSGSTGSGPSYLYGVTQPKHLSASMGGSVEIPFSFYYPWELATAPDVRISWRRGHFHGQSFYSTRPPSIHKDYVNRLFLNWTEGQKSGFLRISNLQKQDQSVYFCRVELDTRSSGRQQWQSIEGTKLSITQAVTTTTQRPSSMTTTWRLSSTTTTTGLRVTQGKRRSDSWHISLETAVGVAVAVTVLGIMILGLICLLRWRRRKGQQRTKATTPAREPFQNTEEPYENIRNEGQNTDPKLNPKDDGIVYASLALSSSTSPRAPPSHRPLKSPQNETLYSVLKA
Procedure: as §1

Row | MFIr | Binder
5 | 44.2 | B4

These binders were tested against T4, murine PILRB, ectopically expressed on 293 cells (murine, UniProt Q2YFS2 29-224) (assay: flow cytometry, MFI relative to 293 parental cells).
T4 construct: whole, on cells; also called mB
T4 sequence (Q2YFS2 29-224): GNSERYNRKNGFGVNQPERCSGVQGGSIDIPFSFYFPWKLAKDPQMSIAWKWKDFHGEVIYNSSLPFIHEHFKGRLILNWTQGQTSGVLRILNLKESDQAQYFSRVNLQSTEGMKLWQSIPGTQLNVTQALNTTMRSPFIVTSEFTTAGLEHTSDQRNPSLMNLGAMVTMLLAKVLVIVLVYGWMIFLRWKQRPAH
Procedure: as §1

Row | MFIr | Binder
6 | 0.8 | B4

The binders below were run against T5, murine PILRA, ectopically expressed on 293 cells (murine, UniProt Q2YFS3 32-302) (assay: flow cytometry, MFI relative to 293 parental cells).
T5 construct: also called mA
T5 sequence (Q2YFS3 32-302): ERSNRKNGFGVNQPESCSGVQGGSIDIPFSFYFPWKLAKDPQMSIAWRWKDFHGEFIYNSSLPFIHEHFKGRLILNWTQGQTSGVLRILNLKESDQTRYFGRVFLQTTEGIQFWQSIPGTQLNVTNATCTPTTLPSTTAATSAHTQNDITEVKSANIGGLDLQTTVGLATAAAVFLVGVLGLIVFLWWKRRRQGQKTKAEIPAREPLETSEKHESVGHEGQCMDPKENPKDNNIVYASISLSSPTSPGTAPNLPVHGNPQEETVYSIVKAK
Procedure: as §1

Row | MFIr | Binder
7 | 0.9 | B4

Each binder was assayed against T6, cynomolgus PILRA, ectopically expressed on 293 cells (cynomolgus monkey) (assay: flow cytometry, MFI relative to 293 parental cells).
T6 sequence (chain, as listed by the source): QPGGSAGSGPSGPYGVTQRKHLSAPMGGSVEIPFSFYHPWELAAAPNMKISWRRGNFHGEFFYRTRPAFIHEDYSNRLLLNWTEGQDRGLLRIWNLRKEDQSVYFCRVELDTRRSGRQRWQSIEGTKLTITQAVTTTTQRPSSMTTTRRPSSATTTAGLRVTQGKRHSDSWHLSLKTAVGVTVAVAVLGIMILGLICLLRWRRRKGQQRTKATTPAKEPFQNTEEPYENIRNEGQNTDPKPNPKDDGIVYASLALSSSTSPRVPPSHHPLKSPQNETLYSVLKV
Procedure: as §1

Row | MFIr | Binder
8 | 0.8 | B4

What follows are binders tested against T7, PILRA Fc (soluble human PILRA) (human, UniProt Q9UKJ1 20-197, limits assumed) (assay: flow cytometry; PILRA Fc binding to human CD3+ T cells with antibody, relative to PILRA Fc alone).
T7 construct: also called soluble PILRA; not shown: Fc part, detected with anti-human IgG
T7 sequence (Q9UKJ1 20-197 limits assumed): as the sequence (Q9UKJ1 20-197 limits assumed) above
Procedure: (§2) The ability of conditioned media samples containing antibodies to inhibit the binding of PILRA Fc to human CD3+ T cells was assessed. Briefly, conditioned media samples containing antibodies were incubated with 1.25 ug/ml PILRA Fc for 30 min at 4° C. and then added to human T cells. After 30 minutes incubation at 4° C., cells were washed, and bound PILRA Fc was detected with anti-human IgG Alexa 647. Cells were analyzed by flow cytometry on FACS Canto II, and for all cell lines, the amount of PILRA Fc binding (MIFI) and the percentage of PILRA Fc binding in the presence of conditioned media relative to PILRA Fc binding alone was calculated. Several antibodies inhibited binding of PILRA Fc to human T cells, and a few antibodies enhanced PILRA-Fc binding to T cells. Antibodies that show enhancement in this assay may block cis inhibition to promote trans interactions or may allosterically activate to enhance trans interactions without blocking cis.

Row | % Binding | Binder
9 | 33.2% | B4

The binders below were run against T7, PILRA Fc (soluble human PILRA) (assay: flow cytometry; blocking of PILRA Fc binding to human CD3+ T cells (Donor 1019)).
Procedure: as §2

Row | IC50 | Binder
10 | 2.2 µg/mL | B5
11 | 4.56 µg/mL | B1
12 | 3.3 µg/mL | B2
13 | 5.1 µg/mL | B6
14 | 2.2 µg/mL | B3
15 | 3.13 µg/mL | B7
16 | 2 µg/mL | B8
17 | 2.9 µg/mL | B9
18 | 3.77 µg/mL | B10

What follows are binders tested against T2, human PILRB, ectopically expressed on … (assay: flow cytometry, 293 cells expressing target).
Procedure: as §1

Row | binding result | EC50 | Binder
19 | no binding |  | B5
20 | no binding |  | B1
21 | no binding |  | B2
22 | no binding |  | B6
23 | no binding |  | B3
24 |  | 0.47 µg/mL | B7
25 |  | 0.35 µg/mL | B8
26 | no binding |  | B9
27 | no binding |  | B10

What follows are binders tested against T3, human PILRA, G78 variant, ectopically … (assay: flow cytometry, 293 cells expressing target).
Procedure: as §1

Row | EC50 | Binder
28 | 0.96 µg/mL | B5
29 | 1 µg/mL | B1
30 | 3.4 µg/mL | B2
31 | 33.5 µg/mL | B6
32 | 31 µg/mL | B3
33 | 0.12 µg/mL | B7
34 | 0.1 µg/mL | B8
35 | 0.2 µg/mL | B9
36 | 0.4 µg/mL | B10

The binders below were run against T4, murine PILRB, ectopically expressed on … (assay: flow cytometry, 293 cells expressing target).
Procedure: as §1

Row | binding result | Binder
37 | no binding | B5
38 | no binding | B1
39 | no binding | B2
40 | no binding | B6
41 | no binding | B3
42 | no binding | B7
43 | no binding | B8
44 | no binding | B9
45 | no binding | B10

What follows are binders tested against T5, murine PILRA, ectopically expressed on … (assay: flow cytometry, 293 cells expressing target).
Procedure: as §1

Row | binding result | Binder
46 | no binding | B5
47 | no binding | B1
48 | no binding | B2
49 | no binding | B6
50 | no binding | B3
51 | no binding | B7
52 | no binding | B8
53 | no binding | B9
54 | no binding | B10

The binders below were run against T6, cynomolgus PILRA, ectopically expressed … (assay: flow cytometry, 293 cells expressing target).
Procedure: as §1

Row | EC50 | binding result | Binder
55 | 2 µg/mL |  | B5
56 |  | no binding | B1
57 |  | no binding | B2
58 |  | no binding | B6
59 |  | no binding | B3
60 | 0.05 µg/mL |  | B7
61 | 0.1 µg/mL |  | B8
62 |  | no binding | B9
63 |  | no binding | B10

What follows are binders tested against T3, human PILRA, G78 variant, ectopically … (assay: flow cytometry; NPDC1-mIgGa binding to 293 cells expressing human PILRA G78 with antibody, relative to NPDC1 Fc alone).
Procedure: Conditioned media samples containing antibodies (10 ug/ml) were assessed for modulating the binding of Neural Proliferation Differentiation and Control Protein 1 (NPDC1) Fc to 293 cells ectopically expressing human PILRA. Briefly, conditioned media samples containing antibodies were incubated with 293 cells expressing human PILRA for 30 minutes at 4° C., and then 5 μg/ml NPDC1 Fc was added to this mixture. Where the antibodies were generated from phage panning, a NPDC1-hIgG1 ligand was used. Where the antibodies were generated from hybridomas, a NPDC1-mIgGa ligand was used. After 30 minutes incubation at 4° C., cells were washed and cell-bound NPDC1 Fc was detected with anti-human or mouse IgG Alexa 647. Cells were analyzed by flow cytometry on FACS Canto II, and for all cell lines, the percentage of NPDC1 Fc binding in the presence of conditioned media relative to NPDC1 Fc binding alone was calculated. Several antibodies decreased binding of NPDC1 to human PILRA, and a few antibodies enhanced ligand binding to human PILRA. Antibodies that show enhancement in this assay may block cis inhibition to promote trans interactions or may allosterically activate to enhance trans interactions without blocking cis.

Row | % Binding | Binder
64 | 69.7% | B4
